The text below walks through data of the RNAGym collection of RNA variant scans (doi:10.7554/elife.80360).

Sequences and labels used below:
B1: HDV Ribozyme (parent)
chain: GGCCGGCAUGGUCCCAGCCUCCUCGCUGGCGCCGGCUGGGCAACAUUCCGAGGGGACCGUCCCCUCGGUAAUGGCGAAUGGGACCCA

This data set covers variants of B1. Nature of the data set: self-cleavage, relative activity (ratio to wild type); higher = more cleavage; co-transcriptional.
Consider C4G G67A, for which the self-cleavage worked out at 0.437.
With C33G C41G the figure was 0.111; with C32G G59C, 0.0923.
Then C24G C57G, with 0.192; and G5C C49G, with 0.192.
With G1U C3G, the self-cleavage came to 1.6.
With G59A G73A the figure was 0.665.
Then A45C A78C, with 0.135; and A42G C48G, with 0.791; and G5A C24A, with 0.0978.
Then C19G G34A, with 0.248.
Consider G2A A71U, for which the self-cleavage was found to be 0.106.
With A51U G76U the figure was 1.11.
Turning to G2A G74U, the self-cleavage amounted to 0.073.
With C57G G67U, the self-cleavage was found to be 0.8.
Then U9A G67C, with 0.831; and G5C G81U, with 0.131.
Regarding C13U C57U, the self-cleavage worked out at 0.853.
Then U27G U79A, with 0.462; and U69G G73U, with 0.314; and C7A G38C, with 0.106.
As to G38C C75U, the self-cleavage came out at 0.0297.
With G50C C66U the figure was 0.954; with C18A C85G, 0.0475; with U65A A70U, 1.14.
On to C32G U65C, for which the self-cleavage came out at 0.135.
With A45U G82C the figure was 0.0898; with C36U G53C, 0.815; with G29A G59C, 0.123.
Then C30G G54A, with 0.0811.
Then U20C G40U, with 0.113.
In the case of U12G A45G, the self-cleavage was 0.959.
With G38U U47C the figure was 0.133; with G28C G40A, 0.148; with C19A G34C, 0.0739.
With A51U C58G, the self-cleavage stood at 0.997.
As for G31A G38U, the self-cleavage turned out to be 0.0702.
Then C49G G54C, with 0.762; and G68U C85A, with 0.707.
Then U27C G34C, with 0.106.
Take G50U G59U: the self-cleavage came out at 0.939.
With C30A A45C the figure was 0.0678.
Then C33U A78C, with 0.0831; and G28C U79G, with 0.246.
Then G39C G59A, with 0.23; and C22G U46G, with 0.0875; and G81A A83C, with 0.165.
As to U23C A51G, the self-cleavage was 0.978.
For G35U U65C, the self-cleavage was determined as 0.434.
With C21G C30G the figure was 0; with C4A A78C, 0.0308; with C14U C36G, 0.322.
Then G28A U69A, with 0.166.
For A16U C66U, the self-cleavage was 1.05.
Then U12C C57A, with 0.268; and C14A G31A, with 0.121; and G25C C36U, with 0.0978.
Then G1U G35A, with 0.192.
Then G10C G11A, with 0.38; and G11C C75U, with 0.185.
Turning to G53U C63A, the self-cleavage was found to be 1.2.
With A42G C85G the figure was 0.522; with C30G U72C, 0.0594.
Then G50A G52A, with 0.888; and G17A U37G, with 0.172.
With U9C G54C the figure was 1.11.
U37G A45C: the self-cleavage amounted to 0.
Turning to G50C U72A, the self-cleavage came out at 0.789.
Then G5U C84G, with 0.262; and C41U C44A, with 0.353.
With U20A G50C the figure was 0.131; with C14U A45U, 0.892.
With U65A G67A the figure was 0.98; with G34A A71G, 0.178.
For G2U G35C, the self-cleavage is 0.016.
With A42G A70C the figure was 0.798.
Take G39A U47A: the self-cleavage was 0.356.
With C7A C13U the figure was 0.0361; with C18U A78U, 0.0707.
With C21U G81C the figure was 0.106; with C48A G53C, 1.2.
Then G1U C24A, with 0.183; and C36G C44U, with 0.0426.
In the case of G54C A71C, the self-cleavage worked out at 0.608.
With G52U A78G the figure was 0.514; with G6A G76A, 0.744.
With C61G G67A the figure was 0.743.
With G28C G80U the figure was 0.123.
Take C26U U60A: the self-cleavage came out at 1.05.
Then C32A U79A, with 0.121.
With G55C U65C the figure was 0.867.
Turning to U37C G38C, the self-cleavage came to 0.237.
Then U47G G52A, with 0.978.
As for C30G G67U, the self-cleavage amounted to 0.112.
With C4A G74A the figure was 0; with G5C, 0.213; with G35C U37C, 0.18.
With G1A G34U the figure was 0.095; with C7U C49U, 0.727; with C57U C86A, 0.882.
With G10A C57G the figure was 0.912; with C18G A77C, 0.178; with C22U C62U, 0.842.
Regarding G29A C75A, the self-cleavage came to 0.0852.
With A45G C85A the figure was 1.01; with G1U C44U, 0.252.
Then G35A A45U, with 0.406; and G80U A87G, with 0.272; and G80U A87C, with 0.192.
With C30G G53A the figure was 0.0482; with G2A A51G, 0.141; with U20A A56C, 0.0519.
For G53A U72A, the self-cleavage worked out at 0.642.
Then G31U C75A, with 0.0665; and C19A G59U, with 0.134; and U23G U79A, with 0.322.
As for U9G G40U, the self-cleavage was found to be 1.06.
With C15G C57A the figure was 0.703.
With C4G C7U the figure was 0.0234; with C41G U72A, 0.499; with G10U G50U, 0.796.
Then C33U U65G, with 1.14; and A77U G81C, with 0.157; and C49A A87C, with 0.95.
Consider A43G G68U, for which the self-cleavage was 0.436.
With U60C G80U the figure was 0.157; with U20C U37G, 0.185; with G6U C85U, 0.646.
With C15A G76C the figure was 0.767; with A45U U65G, 0.615.
With G6U C19G the figure was 0.0692; with G2C C49A, 0.0594; with C14U C15G, 0.415.
G5A C15G: the self-cleavage worked out at 0.151.
Then U60A A71U, with 1.03; and G1A C7U, with 0.0475.
Then C14G G68C, with 0.383; and G6A C41U, with 0.431.
Take G28C G73A: the self-cleavage turned out to be 0.
Regarding G11A G81A, the self-cleavage stood at 0.0639.
On to G5A C49A, for which the self-cleavage was 0.302.
With G2C A70C the figure was 0.0248; with G34U C57A, 0.114.
With G50U A83G the figure was 0.818; with G17U G31C, 0.0361; with C14G G67U, 0.594.
Consider A43C U79A, for which the self-cleavage turned out to be 0.0791.
With G39A A87G the figure was 0.517.
With C26A G40U the figure was 0.946; with G1C G6A, 0.0554.
Then C14G G34A, with 0; and C32G A70C, with 0.38; and C57U C75A, with 0.095.
Take C48A C84U: the self-cleavage is 0.819.
With C30G G68C the figure was 0.0906; with C14G G17A, 0.123.
With G5U G10U the figure was 0.181; with U9G C44A, 0.415; with A71U U79G, 0.831.
With U12C U72C the figure was 0.196.
On to C15G G59C, for which the self-cleavage was found to be 0.767.
With A42C A77U the figure was 0.369; with A45G A56G, 0.997.
As to C66U C84G, the self-cleavage is 0.57.
Then C63U U69C, with 0.964; and A51U U72C, with 0.608.
In the case of G1C G55C, the self-cleavage is 0.214.
